The text below walks through data of patent CN113045663A (SHENZHEN INNOVA NANOBODI CO LTD, dated 2021).

In this assay the target is T1, 血清标本中的HE4抗原 (human, UniProt Q14508 31-124, limits assumed).
T1 construct: Serum HE4 detected in the sandwich assay; kept apart from the recombinant antigen; also called 血清中HE4; 质控血清HE4
T1 sequence (looked up): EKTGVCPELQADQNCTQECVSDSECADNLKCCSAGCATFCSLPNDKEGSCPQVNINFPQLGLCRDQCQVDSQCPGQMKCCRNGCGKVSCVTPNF
Kind of assay: double-antibody sandwich chemiluminescent ELISA, capture antibody. A general note: An ELISA detects its analyte on a solid surface through an enzyme-linked reagent.

B1: FC融合纳米抗体3C8 (Fc fusion)
chain: QLQESGGGLVQAGGSVRLSCAASGRTFRRYHMGWFRQTPGKEREFVAAISWSGGTTYYAESVKGRFTISRDNAKNTIYLQMNSLKPEDTAVYYCAPTYGNYWHPSGYWGQGTQVTVSS
notes: Capture antibody of the double-antibody sandwich assay; also called 3C8 (捕获一抗); 捕获抗体3C8; not shown: Fc part and any linker
As for B1, the binding result is given as “binds”.
